In the data set the target is thrombin (UniProt P00734;P00734 328-363;364-622). The data set is described as follows: 19F NMR.

B1: T9 (19F-labeled TBA) (structured_DNA)
DNA: GGTTGGTGTGGTTGG
modifications: dT9 replaced by 5-[{3,5-bis(trifluoromethyl)phenyl}ethynyl]-2'-deoxyuridine
For the molecule B1, the binding result was “binds”.

These data come from article PMC6045382.
